Experimental data published in patent publication US20180207294A1, “NON-ALCOHOLIC FATTY LIVER REGULATING FACTOR 14-3-3 PROTEIN” (Korea University Research and Business Foundation, priority 2015, published 2018).

Columns and labels:
Assay type in all cases: cell-based
[1] = biological target: T1, PPARγ2 (Homo sapiens, UniProt P37231); assay: aP2 promoter luciferase assay of PPARγ2 transcriptional activity in HEK-293T cells
T1 construct: host or cells: HEK-293T
T1 sequence (P37231 1-505): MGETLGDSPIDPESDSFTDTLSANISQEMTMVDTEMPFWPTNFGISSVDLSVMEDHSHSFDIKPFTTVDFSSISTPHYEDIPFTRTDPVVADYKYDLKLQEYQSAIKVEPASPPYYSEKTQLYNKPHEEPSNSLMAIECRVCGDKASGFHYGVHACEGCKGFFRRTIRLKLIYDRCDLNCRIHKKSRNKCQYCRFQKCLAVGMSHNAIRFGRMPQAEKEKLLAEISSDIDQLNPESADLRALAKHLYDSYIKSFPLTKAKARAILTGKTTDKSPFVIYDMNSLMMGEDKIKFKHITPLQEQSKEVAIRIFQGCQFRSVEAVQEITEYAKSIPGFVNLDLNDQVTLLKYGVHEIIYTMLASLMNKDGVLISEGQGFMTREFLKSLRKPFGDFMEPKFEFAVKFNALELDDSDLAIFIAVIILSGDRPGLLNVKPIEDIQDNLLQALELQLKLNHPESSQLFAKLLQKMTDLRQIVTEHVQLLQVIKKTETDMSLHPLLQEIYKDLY
Procedure: The transcriptional activity of PPARγ2 plays a vital role in expression of liver diseases-associated proteins. Thus, the transcriptional activity of PPARγ2 was measured using an aP2 promoter regulated by PPARγ2, and the role of 7 types of 14-3-3 proteins was investigated.
For this, HEK-293T cells were seeded in a 12-well plate at a density of 1×10^5 cells per each well, and then transfected with an aP2 promoter construct (0.5 μg) and 14-3-3 isoform proteins (α, β, γ, ε, ζ, π, θ) (0.5 μg) or si-14-3-3β and si-14-3-3γ siRNA (5 nM and 10 nM, Santa Cruz) using an E-fection plus reagent (Lugen). A ratio of DNA to the E-fection plus reagent was 1:2, and this method was performed according to a manufacturer's manual. After transfection, the corresponding cells were treated with 10 μM of pioglitazone (Pio, Santa Cruz) for 24 hours, washed with ice-cold PBS, and lysed using 80 μl/well of a reporter lysis buffer (Promega, Madison, Wis.), and the lysed cells were centrifuged at 10,000×g and 4° C. for 10 minutes to collect a supernatant, and luciferase activity was measured. As an instrument, Luminometer 20/20n (Turner Biosystems, Sunnyvale, Calif.) was used. For normalization, the cells were cotransfected with pSV40-β-galactosidase. For the collected supernatant, β-galactosidase activity was measured and the luciferase activity was revised, and the obtained values were plotted. At this time, a β-galactosidase enzyme analysis system (Promega, Madison, Wis.) was used, and analysis was performed using a DU530 spectrophotometer (Beckman Instruments, Palo Alto, Calif.).

[2] = test system: SREBP-1c protein; assay: SREBP-1c protein expression by western blotting, HepG2 cells; settings: 14-3-3 overexpression, 200 μM oleic acid 72 hours, FIG. 7D
Procedure: In addition, HepG2 cells were seeded in a 6-well plate at a density of 5×10^5 cells per each well, and then transfected with HA-14-3-3β DNA (1 μg) or HA-14-3-3γ DNA (1 μg) using an E-fection plus reagent (Lugen). A ratio of DNA to the E-fection plus reagent was 1:2, and this method was performed according to a manufacturer's manual. After transfection, the cells were treated with 200 μM of oleic acid (OA) for 72 hours, washed with ice-cold PBS, and lysed with 80 μl/well of a lysis buffer (150 mM NaCl, 1 mM EDTA, 1% Nonidet P-40, 5% glycerol, 25 mM tris-HCl, pH 7.5, protease inhibitor added), the lysed cells were centrifuged at 10,000×g and 4° C. for 10 minutes to extract proteins, and 30 μg of the proteins was separated on a 10% SDS-PAGE gel and identified using each of the antibodies (HA, SREBP-1c: Santa Cruz) by western blotting, and all antibodies were used in a ratio of 1:3000. To verify whether such regulation of mRNA expression of the target genes of PPARγ2 is the same as in the expression of a protein thereof, an expression amount of the SREBP-1c protein was checked by western blotting. As a result of the experiment, it was confirmed that the expression of the SREBP-1c protein was increased by the overexpression of 14-3-3β and reduced by the overexpression of 14-3-3γ (see FIG. 7D).

[3] = test system: primary mouse hepatocytes; assay: Oil Red-O lipid accumulation, primary mouse hepatocytes; settings: 14-3-3 overexpression, 200 μM oleic acid 72 hours, FIG. 9B
Procedure: HepG2 cells and primary mouse hepatocytes were separately seeded in a 6-well plate at a density of 4×10^5 cells per each well, and then transfected with GFP-14-3-3β DNA (1 μg) or GFP-14-3-3γ DNA (1 μg) and si-14-3-3β (10 μM, Santa Cruz) or si-14-3-3γ (10 μM, Santa Cruz) using an E-fection plus reagent (Lugen). A ratio of DNA to the E-fection plus reagent was 1:2, and this method was performed according to a manufacturer's manual. […] The stained cells were bleached with 1 ml of isopropanol and analyzed at a wavelength of 550 nm using a DU530 spectrophotometer (Beckman Instruments, Palo Alto, Calif.).

[4] = 14-3-3β / 14-3-3γ overexpressed according to concentration, FIG. 1B, 1C
[5] = overexpression of 14-3-3 isoform proteins (0.5 μg), 10 μM pioglitazone 24 hours, FIG. 1A

## 14-3-3β: 14-3-3 isoform protein, overexpressed by DNA transfection; regulating factor that increases transcriptional activity of PPARγ2
[1]; [4]
  transcriptional activity of PPARγ2 (activity of the aP2 promoter): increased the transcriptional activity of PPARγ2 in a concentration-dependent manner
[1]; [5]
  transcriptional activity of PPARγ2 (activity of the aP2 promoter): increased the transcriptional activity of PPARγ2
[2]
  expression of the SREBP-1c protein: increased
[3]
  lipid accumulation by oleic acid (Oil Red-O): increased lipid accumulation

## 14-3-3γ: 14-3-3 isoform protein, overexpressed by DNA transfection; regulating factor that decreases transcriptional activity of PPARγ2
[1]; [4]
  transcriptional activity of PPARγ2 (activity of the aP2 promoter): reduced the transcriptional activity of PPARγ2 in a concentration-dependent manner
[1]; [5]
  transcriptional activity of PPARγ2 (activity of the aP2 promoter): decreased the transcriptional activity of PPARγ2
[2]
  expression of the SREBP-1c protein: reduced
[3]
  lipid accumulation by oleic acid (Oil Red-O): reduced lipid accumulation
